assay: yeast display, Sf9 membrane polyspecificity reagent, FACS + sequencing; frameworks hold sequencing errors
Outline: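 Nanobodies from a synthetic yeast display library (Saccharomyces cerevisiae BJ5465), induced 36–48 hours with galactose, were stained 1 hour at 4 °C with 10% biotinylated, detergent-solubilized Sf9 membrane reagent, enriched on streptavidin microbeads, then FACS-sorted. Anti-HA (expression) and streptavidin (reagent binding) fluorescence set low and high (top ~1%) gates. Polyreactivity labels come from the gate of origin. Genes were colony-PCR amplified, MiSeq 2 × 250 sequenced and filtered by CDR length.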

Sequence	polyreactivity (PSR sort gate)
QVQLVDSVGGLVQAGGSLRLSCAASGFTFWYYAMGWYRQAPGKERELVAAISSGGSTYYADSVKGRFTISRDNAKNTVYLQMNSLKPEDTAVYYCAARIGARGRGGKDRVYYWGQGTQVTVSS	high polyreactivity
QVQLVDSVGRLVQAGGSLRLSCAASGSTFVGYAMGWYRHAPGKEREMDADIDSIGGSTYYADSVKGRFTISRDNAKNTVYLQMNILKPEDTAVYYCAARRYDTALVLYDYWGQGTQVTVSS	low polyreactivity
QVQLVDSVGVLVQAGGSLRLSCAASGSIFYRNVMGWYRPAPGKERELVATISRGGTTNYADSVKGRFTISRDNAKNTVYLQMNSLKPEDTAVFYCAAPIGDVYVGIGYDSWGQGTQVTVSS	low polyreactivity
QVQLVDTGGGLVQAGGSLRLSCAASGLTFQQYAMGWYRQAPRKERELVAAITSDGASTNYADSVKGRFTNSRDNAKNTVYLQMNSLKPEDCAVYYCAAGRRSRQYRYVYWGQGTQVTVSS	high polyreactivity
QVQLVEAGGGLVLAGGSLRLSCAASGIIFVSYAMGWSRQAPGKERELVASISWSGGRTYYADSVKARFTISRDNAKNTVYLQMNSLKPEDTAVYFCAAAYRTRSGVRRYPWFNYWGQGTQVTVSS	high polyreactivity
QVQLVEAGGGLVQAGGSLRLSCAASGITFGDNAMGCYRQAPGKERELVAAITLSDVDTYADSVKGRFTISRDNAKNTVYLQMNSMKPEDTAVYYCAADYDFFSLYLYDYCGQGTQVTVSS	low polyreactivity
QVQLVEAGGGLVQAGGSLRLSCAASGNTLYGNAMGWYLQAPGKERELVAAISWSGGSTSYADSVKGRFTISRDNAENTVYLQMNSLKPEDTAVYYCATQGFYKDYSRYDYWGQGTQVTVSS	low polyreactivity
QVQLVEAGGGLVQAGGSLRLSCAASGRTFRYYAMRWYRQATGKERELVAAITTGSSTYYADSVKGRFTISRDNAKNTVYLQMNSLKPEDTAVYYCAADHLYWGLEYESWGQGTQVTVSS	low polyreactivity
QVQLVEAGGGLVQAGGSLRLSCAPSGFICYYYGMGWYRQAPGKDREVVASIRSGGSTNYADSVKGRFTISRDNAKNTGYLQMNWLKPEDTAVYNCAASLLNRISNYDYWGQGTQVTVKS	high polyreactivity
QVQLVEAGGGLVQAGGSLRLSCATSGGIFPPNAMGWYRQAPGKERELVASISSDGSTNYADSVKGRFTISRDNAKNTFYLQMISLKPEDTAVYFCAADSTTTWARLHVRRYYYWGQGTQVTVSS	low polyreactivity
QVQLVEAGGGLVQAGVSLRLSCAASGSIFGYNAMGWYRQAPGKERELVAAISRRGTRTYYADSVKGRFTISRDTAKNTVYLQMNSLKPEDTAVYYCNASPSLDYDYWGQGTQVTVSS	high polyreactivity
QVQLVEAGLGLVQAGGSLRLSCAASGFIFVANAMVWYRQAPGKERELVAAISFSSTSTRYADSVKGRFTISRDNAKNTVYLQMNSLKPEDTAVYYCAVDLTFSEFDYWGQGTQVTVSS	low polyreactivity
QVQLVEAGVGLVQAVGSLRLSCAASGYIFVVNAMGWYRQAPGKERELVASITWSGDNTYYADSVKGRFTISRDNAKNTVYLQMNSLKPEDTAVYYCAATIWIAYRGWYSDYNYWGQGTQVTVSS	low polyreactivity
QVQLVEKGGGLVQAGGSLRLSCAPSGGLFSKNAMGCYRQAPGKVRELVAGISSGGTTYYADSVKGRFTISRDNAKNTGYLQMNSLKPEDSAVYYCAVPYYRRLGPLNDSWGQGTQVTVSS	low polyreactivity
QVQLVEPGGGLVHAGGSLRLSCAASGRIYYVYAMGWYRQAPGKERELVAGIRSGGSTNYADSVKGRFTISRDNAKNTVYLQMNSLNPEDTAVYYCAVQSYGALSPQLVYRRYDYWGQGTQVTVSS	high polyreactivity
QVQLVESAAGLVQAGASLRLSCAPSGRIYRYYAMGWYRQAPGKDRELVAAISSSGGSTYYADSVKGRFSISRDNAKNTVYLQKNSLKPEDTAVYYCAARKASGRFGYWGQGTQVTVSS	high polyreactivity
QVQLVESAAGLVQAGGCLRLSCAASGRIFGYYAMGGYRKAPGKERELVAAITSGGGTYYADSVKGRFTNSRDNAKNTVYLQMNSLKPEDTAVYFCAADDYFHDDYCGQGTQVTVSS	high polyreactivity
QVQLVESAAGLVQAGGRLRLSCAASGYTFSNYAMGWSRQAPGKERELVAAISRSGGSTYYADSVKGRFTISRDNAKNTVYLQMNSLNPVDTAVYYCAASRSGTYDWGLGTQVTVSS	high polyreactivity
QVQLVESAAGLVQAGGSLRLSCAASGRIFRYNTMGWYRQAPGKESELVAAITSGVRTNYADSVKGRFTISRDNAKNTVYLQMNSLKPEDTAVYYCAADPYWFFPNYDSWGQGTQVTVSS	low polyreactivity
QVQLVESAAGLVQAGGSLRLSCAASGRISHRNAMGWSRQAPGKERELVAAITSGGSTNYADSVKGRFTISRDNAKNTVYLQMNSLKPEDTAVYYCAARRLPSTWYIYWGQGTQVTVSS	low polyreactivity
QVQLVESAAGLVQAGGSLRLSCAASGSTFYRYEMGWYRQAPGKERELVATNTSGGSSTYYADSVKGRFTISRDNAKNTVYLQMNSLKPEDTAVYYCAKVYTYSGVNLSSISTPYGYWGQGTQVTVSS	high polyreactivity

Sequence	polyreactivity (PSR sort gate)
QVQLVESAAGLVQAGGSLRLSCAPSGSTFYLYDMGWYRQAPGKEREFVATITSGTSTTYADSVKGRFTISRDNAKNTVYLQMNSLKPEDTAVYYCNATDVGIITVGYGHGGYYWGQGTQVTVSS	low polyreactivity
QVQLVESAGALVQAGGSLRLSCAASGPTFSHNAMGWDRQAPGKERELVASIRSGGLTDYADSVKGRFTISRDNAKNTVYLQMTSLKPEDSAVFYCIAEGVWWSTRYDSWGQGTQVTVSS	low polyreactivity
QVQLVESAGGIVQAGGSLRLSCAASESIFETYDMGCYRQAPGTERELVAAITLSGGSTYYADSVKGRFTISRDNAKNTVYLQMNSLKPEDTAVYYCAADDSGVKVWEGDYWGQGTQVTVSS	low polyreactivity
QVQLVESAGGLVLAGGSLRLSCAASGRIFARNAMGWYRQAAGKEREFVAGITWSGSSTYYADSVKARFTISRDNAKNTVYLQMNSLKPEDTAVYYCAVDNYVGSLRIDHDYWGLGTQVTVSS	low polyreactivity
QVQLVESAGGLVQAAGSLRLSCDASGFTTYYNAMGWYRQAPGKERELVAAISSSGGSTNYADSVKGRFTISRDNAKNTVYLQMNSLKPEDTAVYYCAARLYGWYYGGYTRYDYWGQGTQVTVSS	high polyreactivity
QVQLVESAGGLVQAGGRLRLSCAASGIIFEQYAMGSYRQAPGKERELVAAISSGCTTYADSVKGRFTISRDNAKNTVYLQMNSLTPEDTAVYYGNADLSWDGPDWSDYEYDYWGQGTQVTVSS	low polyreactivity
QVQLVESAGGLVQAGGRLRLSCAAYGFTFNKYAMGWSRQAPGKEREVVAYISSGDRTYYADSVKGRFTISRDNAKNTVYLQMNSLKPEDTAVYYCNAPYRIILENNNYWGHGTQVTVSS	high polyreactivity
QVQLVESAGGLVQAGGSHRLSCAASGITFYRYVMARYRQAPGKERELVAAITSGGNTYYADSVKGRFTISRDNAKNTFYLQMNRLKPDDTAVYYCAAYFSGPFDYWGQGTQVTVSS	high polyreactivity
QVQLVESAGGLVQAGGSHRLSFAATGRIFGPNTMGWYRQAPGKERDLVATITGGGGTNYADSVKGRFRISRVNAKYTDYLQMNSLKPVDTAVYYCAADYGGAYEYGYWGQGTQVTVSS	low polyreactivity
QVQLVESAGGLVQAGGSLPLSCAASGFTFISNAMGWYRQSPAKERELVAAISSSGGRTYYAVSVKGRFTISRDNAKNTVYLQMNSVKPEDTAVYYSNADRSLLYSRKIEYDYWGQGTKVTVSS	low polyreactivity
QVQLVESAGGLVQAGGSLRLICAASGSILQPYAMGWYRQAPGKERELVAYISYSGASTYYADSVKGRFTISRDNPKNTVYLQLNSLKPEDPAVYYCNARYWYHYLTYDYSGQGTQVTVSS	high polyreactivity
QVQLVESAGGLVQAGGSLRLICAATGLNLYVYVMGWYRQAPGKERELVAAITWSVSRTYYADSVKGRFTISRDNAKNTVYLQMNSLKPEDTAVYYCAARIPSDGYYYWGQGTQVTVSS	high polyreactivity
QVQLVESAGGLVQAGGSLRLRSAASGSTIWHNAMGWYRHAPGKERELVAGISGSGGSTYYADSVKGRFTISRDNAKNTVYLEMNSMKPDDTAVYYCATDGRSRVDGVRRGPYDYWGQGTHVTVSS	low polyreactivity
QVQLVESAGGLVQAGGSLRLSCAASARTFSAYSMGWYRQAPGKERELVAAISRRGRSTYYADSVKGRFTISRDNAKNTVYLQMTSLKPEDTAVYYCAADVYKQYGYYYWGLGTQVTVSS	high polyreactivity
QVQLVESAGGLVQAGGSLRLSCAASGFIFGGNAMGWYRQAPGKERELVAAITARSGSTYYADSVKGRFTISRDNAKNTVYLQMNSLKPEDTAVYYCATPVYRSTYEYDYWGQGTQVTVSS	low polyreactivity
QVQLVESAGGLVQAGGSLRLSCAASGFIFSRNAMGWYRQAPGKERELVAVISTSGGSTYYADSVKGRFTISRDNAKNTVYLQMNSLKPEDTAVYYCAARRTRGYEYWGKGTQVTVSS	high polyreactivity
QVQLVESAGGLVQAGGSLRLSCAASGFTFGDNAMGWYRQAPGKERELVAAITSSGSTNYADSVKGRFTISRDNAKNTVYLQMNSLKPEDTAVYYCNAEDSVDAPVYKDLGSEYDSWGQGTQVTVSS	low polyreactivity
QVQLVESAGGLVQAGGSLRLSCAASGGTFLQYAMGSYRQAPGKERELVATITLIGDSTYYADSVKGRFTISRDNAKNTVYLQMNSLIPEDTAVYYCADRPVTSYAYGSWGQGTQVTVSS	low polyreactivity
QVQLVESAGGLVQAGGSLRLSCAASGIIFDDNAKGWYRQAPGKERELVAAISGRGGSTYYADSVKGRFTISRDNAKNTVYLQMNSLKPEDTAVYYCAASTVRRGTAPYSGGGDYWGQGTQVTVSS	high polyreactivity
QVQLVESAGGLVQAGGSLRLSCAASGIIFEYYTRGWYRQAPGKERELVASITYDGDSTYYADSVKGRFTISRDNAKNTVYLQMNSLKPEDTAVYYCAADYYYVYSSFGHYYWGQGTQVTVSS	low polyreactivity

Source: the nanobody polyreactivity screen of Harvey et al. (2022)
